How the values were obtained:
SAXS = target: the molecule itself; test: SAXS
SEC-MALS = target: the molecule itself; test: SEC-MALS

B1: XRCC4 1-140 (domain or fragment, human, UniProt Q13426 1-140, looked up)
chain: MERKISRIHLVSEPSITHFLQVSWEKTLESGFVITLTDGHSAWTGTVSESEISQEADDMAMEKGKYVGELRKALLSGAGPADVYTFNFSKESCYFFFEKNLKDVSFRLGSFNLEKVENPAEVIRELICYCLDTIAENQAK
stoichiometry N (SAXS): 2

B2: full-length XRCC4 (natural protein, human, UniProt Q13426 1-336, looked up)
chain: MERKISRIHLVSEPSITHFLQVSWEKTLESGFVITLTDGHSAWTGTVSESEISQEADDMAMEKGKYVGELRKALLSGAGPADVYTFNFSKESCYFFFEKNLKDVSFRLGSFNLEKVENPAEVIRELICYCLDTIAENQAKNEHLQKENERLLRDWNDVQGRFEKCVSAKEALETDLYKRFILVLNEKKTKIRSLHNKLLNAAQEREKDIKQEGETAICSEMTADRDPVYDESTDEESENQTDLSGLASAAVSKDDSIISSLDVTDIAPSRKRRQRMQRNLGTEPKMAPQENQLQEKENSRPDSSLPETSKKEHISAENMSLETLRNSSPEDLFDEI
stoichiometry N (SEC-MALS): 4

B3: XRCC4 1-161 (domain or fragment, human, UniProt Q13426 1-161, looked up)
chain: MERKISRIHLVSEPSITHFLQVSWEKTLESGFVITLTDGHSAWTGTVSESEISQEADDMAMEKGKYVGELRKALLSGAGPADVYTFNFSKESCYFFFEKNLKDVSFRLGSFNLEKVENPAEVIRELICYCLDTIAENQAKNEHLQKENERLLRDWNDVQGR
stoichiometry N (SAXS): 2

From publication PMC3008546 (Structure (London, England : 1993), 2010)
